Patent publication US20160017037A1 (GlaxoSmithKline, published 2016)
Where “and” joins values, the source holds several entries; their conditions need not be identical. Equal entries are not always repeated.

T1: Human LAG-3 on cells (human LAG-3 expressing EL4 cells; activated human CD3+ T cells) (human, UniProt P18627 23-525)
T1 sequence (looked up): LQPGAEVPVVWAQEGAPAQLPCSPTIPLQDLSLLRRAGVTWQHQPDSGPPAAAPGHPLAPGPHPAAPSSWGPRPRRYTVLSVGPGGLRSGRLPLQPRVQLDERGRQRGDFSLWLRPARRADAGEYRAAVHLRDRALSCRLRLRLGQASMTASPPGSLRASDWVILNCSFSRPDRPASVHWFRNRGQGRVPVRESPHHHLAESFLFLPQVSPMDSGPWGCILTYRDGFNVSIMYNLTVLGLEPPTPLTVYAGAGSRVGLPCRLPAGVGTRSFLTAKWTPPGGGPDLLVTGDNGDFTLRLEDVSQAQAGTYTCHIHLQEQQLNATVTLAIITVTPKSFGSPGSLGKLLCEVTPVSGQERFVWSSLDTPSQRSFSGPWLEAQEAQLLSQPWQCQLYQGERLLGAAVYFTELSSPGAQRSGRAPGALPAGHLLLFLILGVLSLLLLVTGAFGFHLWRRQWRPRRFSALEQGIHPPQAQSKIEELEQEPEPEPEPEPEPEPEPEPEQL

T2: Recombinant human LAG-3 ECD-His6 (human, UniProt P18627 23-433)
T2 construct: also called LAG-3-His; recombinant human LAG-3-His
T2 sequence: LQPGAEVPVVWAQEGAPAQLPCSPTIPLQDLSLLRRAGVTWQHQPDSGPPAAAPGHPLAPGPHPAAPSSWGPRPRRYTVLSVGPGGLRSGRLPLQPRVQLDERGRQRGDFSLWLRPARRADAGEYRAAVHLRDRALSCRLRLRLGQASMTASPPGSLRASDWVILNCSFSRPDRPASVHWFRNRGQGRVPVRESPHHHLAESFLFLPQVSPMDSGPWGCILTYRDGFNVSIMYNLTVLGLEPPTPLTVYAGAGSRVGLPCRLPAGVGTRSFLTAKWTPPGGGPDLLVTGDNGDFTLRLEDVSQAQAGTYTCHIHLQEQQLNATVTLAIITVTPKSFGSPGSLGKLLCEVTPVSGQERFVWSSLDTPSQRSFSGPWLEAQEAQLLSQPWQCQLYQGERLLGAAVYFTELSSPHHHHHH

T3: recombinant soluble human FcγRIIa H131 (human, UniProt P12318 36-218, limits assumed)
T3 sequence (looked up): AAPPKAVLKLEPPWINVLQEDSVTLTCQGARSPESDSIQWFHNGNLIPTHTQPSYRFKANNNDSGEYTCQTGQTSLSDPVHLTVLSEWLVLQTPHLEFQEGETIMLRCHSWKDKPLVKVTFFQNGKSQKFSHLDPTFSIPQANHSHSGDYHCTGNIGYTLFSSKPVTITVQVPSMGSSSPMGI

B1: H5L7BW (antibody, human IgG1, kappa)
heavy: not shown
light: DIQMTQSPSSLSASVGDRVTITCKSSQSLLNPSNQKNYLAWYQQKPGKAPKLLVYFASTRDSGVPSRFSGSGSGTDFTLTISSLQPEDFATYYCLQHFGTPPTFGQGTKLEIKRTVAAPSVFIFPPSDEQLKSGTASVVCLLNNFYPREAKVQWKVDNALQSGNSQESVTEQDSKDSTYSLSSTLTLSKADYEKHKVYACEVTHQGLSSPVTKSFNRGEC
modifications: afucosylated: no fucose on the core carbohydrate structure attached to Asn297
notes: Same plasmids as H5L7, expressed in the BioWa POTELLIGENT (FUT8 knock-out CHO) cell line; also called afucosylated antibody H5L7BW; afucosylated H5L7
B2: H5L7 (antibody, human IgG1, kappa)
heavy: not shown
light: B1 light
notes: Humanised IgG1/kappa of A9H12 (IMP731); also called fucosylated H5L7; non-ADCC enhanced variant H5L7
B3: IMP731 (antibody, human IgG1, kappa)
heavy: not shown
light: DIVMTQSPSSLAVSVGQKVTMSCKSSQSLLNGSNQKNYLAWYQQKPGQSPKLLVYFASTRDSGVPDRFIGSGSGTDFTLTISSVQAEDLADYFCLQHFGTPPTFGGGTKLEIKRTVAAPSVFIFPPSDEQLKSGTASVVCLLNNFYPREAKVQWKVDNALQSGNSQESVTEQDSKDSTYSLSSTLTLSKADYEKHKVYACEVTHQGLSSPVTKSFNRGEC
notes: Chimeric (murine variable domains, human IgG1/kappa constant regions); also called A9H12; chimeric antibody IMP731

Legend:
[1] = target: T4, recombinant soluble human FcγRIIIa F158 (human, UniProt P08637 17-208); experiment: SPR ProteOn XPR36, His-tagged receptor captured on anti-poly-histidine IgG, equilibrium model
T4 construct: also called FcγRIIIa phenylalanine F158; CD16
Method: (§1) A goat anti-poly-histidine IgG was immobilised on a GLM biosensor chip by primary amine coupling. This surface was used as a capture surface for the poly-histidine tagged human Fc gamma receptors. […] The goat anti-poly-histidine IgG surface was regenerated with 100 mM phosphoric acid between interactions. The run was carried out on the ProteOn XPR36 Protein Array Interaction System at 25° C. and using HBS-EP as running buffer. Data was analysed for each receptor separately, setting a global R-max and using the Equilibrium Model inherent to the ProteOn's analysis software. Control molecules were run at the beginning and the end of the set of samples to be tested to ensure comparability of results. Data was compared from two experiments and hybrid control antibodies used as controls between experiments.

[2] = target: T5, recombinant soluble human FcγRIIIa V158 (human, UniProt P08637 17-208); experiment: as above
T5 construct: also called FcγRIIIa valine V158; CD16
Method: as §1

[3] = target: T1, Human LAG-3 on cells (human LAG-3 …); experiment: cell-based or functional assay
[4] = target: T2, Recombinant human LAG-3 ECD-His6; experiment: SPR Biacore T100, Anova comparison of kd
Method: (§2) Wild type fucosylated and afucosylated antibodies were compared for their ability to bind to recombinant human LAG-3 ECD with a C-terminal His6 (SEQ ID NO:51) using the Biacore™ T100 (GE Healthcare™). Protein A was immobilised on a CM5 chip by primary amine coupling. This surface was then used to capture the humanised antibodies. Recombinant human LAG-3 ECD-His6 was then passed over the captured antibodies at 32, 8, 2, 0.5 and 0.125 nM and regeneration was carried out using 50 mM NaOH. The binding curves were double referenced with buffer injection (i.e. 0 nM) and the data was fitted to the T100 analysis software using the 1:1 model. The run was carried out at 25° C., using HBS-EP as the running buffer.
(§3) In order to investigate the statistical significance of this kinetic data, this experiment was repeated 3 times with the same batch of the four antibodies and the chimeric control. KD, ka and kd parameters were each log (base 10) transformed prior to separate statistical analyses. For each parameter, a mixed model analysis of variance CAnova′) was performed on transformed data, including terms for Run (random block effect) and Antibody.
(§4) From the Anova, geometric means were predicted for each antibody, along with statistically plausible ranges (95% confidence intervals) for each mean. Planned comparisons of antibodies were performed within the Anova. […]

[5] = target: T3, recombinant soluble human FcγRIIa H131; experiment: SPR ProteOn XPR36, His-tagged receptor captured on anti-poly-histidine IgG, antibody analyte 8-2048 nM, equilibrium model, 25 C
Method: as §1

[6] = target: T2, Recombinant human LAG-3 ECD-His6; experiment: SPR Biacore T100, Anova comparison of KD
Method: as §2, §3, §4

T5 sequence (P08637 17-208 F176V limits assumed): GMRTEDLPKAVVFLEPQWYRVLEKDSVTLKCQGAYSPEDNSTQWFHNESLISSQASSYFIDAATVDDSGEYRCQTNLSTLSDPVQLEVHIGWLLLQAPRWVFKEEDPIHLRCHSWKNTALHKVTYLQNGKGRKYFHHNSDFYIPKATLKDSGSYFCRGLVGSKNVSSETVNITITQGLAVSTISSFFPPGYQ
T4 sequence (P08637 17-208 limits assumed): as the sequence (P08637 17-208 F176V limits assumed) above, with V160F counted along it

Binder | fold improvement in affinity against H5L7 [1] [fold] | fold improvement in affinity against H5L7 [2] [fold] | EC50 of depletion of antigen specific CD4 T cells by ADCC (primary human T cells, autologous NK cells, 18 h) [3] | EC50 of depletion of antigen specific LAG-3 positive CD8 T cells by ADCC [3] | kd ratio against H5L7 [4] [ratio] | Kd [5] [nM] | KD ratio against H5L7 [6] [ratio] | kd ratio against IMP731 [4] [ratio] | KD ratio against IMP731 [6] [ratio]
B1 | ~10 | ~10 | 14 µg/mL and 3.4 ng/mL | 122 µg/mL and 0.0175 µg/mL | 1.12 | 1430 | 1.05 | – | –
B2 | – | – | – | – | – | 638 | – | 0.155 | 0.0774
B3 | – | – | – | – | – | 1280 | – | – | –
